± gives the uncertainty stated by the source.
Assay: self-splicing fitness, log relative to wild type (ln ratio); higher = more splicing; Tetrahymena group I intron in knt gene, E. coli kanamycin selection, DiMSum; sequences stand for … in CUCUCU…GGAGGGAAAAGUUAUCAGGCAUGCACCUGGUAGCUAGUCUUUAAACCAAUAGAUUGCAUCGGUUUAAAAGGCAAGACCGUCAAAUUGCGGGAAAGGGGUCAACAGCCGUUCAGUACCAAGUCUCAGGGGAAACUUUGAGAUGGCCUUGCAAAGGGUAUGGUAAUAAGCUGACGGACAUGGUCCUAACCACGCAGCCAAGUCCUAAGUCAACAGAUCUUCUGUUGAUAUGGAUGCAGUUCACAGACUAAAUGUCGGUCGGGGAAGAUGUAUUCUUCUCAUAAGAUAUAGUCGGACCUCUCCUUAAUGGGAGCUAGCGGAUGAAGUGAUGCAACACUGGAGCCGCUGGGAACUAAUUUGUAUGCGAAAGUAUAUUGAUUAGUUUUGGAGUACUCGUGGUCG
Method in brief: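 Library with all eight P1ex-region intron nucleotides randomised, intron inside the knt kanamycin-resistance gene on pET-22b(+), in E. coli BL21(DE3). Cells grew overnight at 37°C or 30°C on LB agar with or without 25 μg/mL kanamycin (plus 100 μg/mL carbenicillin, 50 μM IPTG, 0.2% rhamnose), in six replicate transformations. Pooled colonies were amplicon-sequenced on Illumina HiSeq 2500. DiMSum fitness is the error-weighted combination of wild-type-normalised replicate fold changes, kanamycin versus none.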

| Sequence | self-splicing fitness (ln) (30 °C) | self-splicing fitness (ln) (37 °C) |
| --- | --- | --- |
| CGUGAGCAAUAUUACGCAGG | -1.54 ± 0.11 | -2.14 ± 0.15 |
| CGUGAGCAAUAUUACGCGGA |  | -1.62 ± 0.39 |
| CGUGAGCAAUAUUACGGCCG | -1.92 ± 0.43 |  |
| CGUGAGCAAUAUUACGGGGU | -3.62 ± 0.2 | -3.32 ± 0.26 |
| CGUGAGCAAUAUUACGGUAG | -1.84 ± 0.11 | -1.11 ± 0.11 |
| CGUGAGCAAUAUUACGGUAU | -3.54 ± 0.25 | -3.1 ± 0.34 |
| CGUGAGCAAUAUUACGGUGC | -4.97 ± 0.41 | -3.39 ± 0.17 |
| CGUGAGCAAUAUUACGGUGU | -3.79 ± 0.43 | -1.98 ± 0.22 |
| CGUGAGCAAUAUUACGUAGA | -3.22 ± 0.2 | -2.89 ± 0.22 |
| CGUGAGCAAUAUUACGUAGU | -4.5 ± 0.36 | -2.19 ± 0.2 |
| CGUGAGCAAUAUUACGUCAG | -1.86 ± 0.16 | -0.364 ± 0.15 |
| CGUGAGCAAUAUUACGUCGG | -0.475 ± 0.11 | -0.606 ± 0.12 |
| CGUGAGCAAUAUUACGUCUA | -2.99 ± 0.37 | -1.59 ± 0.21 |
| CGUGAGCAAUAUUACGUGCC |  | -1.78 ± 0.39 |
| CGUGAGCAAUAUUACGUGCG | -3.21 ± 0.24 | -2.6 ± 0.32 |
| CGUGAGCAAUAUUACGUGGG | -2.91 ± 0.14 | -1.99 ± 0.11 |
| CGUGAGCAAUAUUACGUUAA | -4 ± 0.31 | -3.55 ± 0.3 |
| CGUGAGCAAUAUUACGUUCC | -3.37 ± 0.31 |  |
| CGUUAGCAAUAUUACGCAAC | -2.61 ± 0.49 | -2.01 ± 0.35 |
| CGUUAGCAAUAUUACGCACA | -1.33 ± 0.17 | -0.0289 ± 0.28 |
| CGUUAGCAAUAUUACGCAGG | -1.3 ± 0.1 | -1.26 ± 0.16 |
| CGUUAGCAAUAUUACGCAGU |  | -2.29 ± 0.37 |
| CGUUAGCAAUAUUACGCAUA |  | -1.37 ± 0.23 |
| CGUUAGCAAUAUUACGCCUC | -3.03 ± 0.49 | -2.48 ± 0.32 |
| CGUUAGCAAUAUUACGCGCC | -2.21 ± 0.39 | -1.05 ± 0.27 |
| CGUUAGCAAUAUUACGGAAG | -1.02 ± 0.12 | -0.829 ± 0.12 |

| Sequence | self-splicing fitness (ln) (30 °C) | self-splicing fitness (ln) (37 °C) |
| --- | --- | --- |
| CGUUAGCAAUAUUACGGACC | -0.382 ± 0.14 | 0.675 ± 0.16 |
| CGUUAGCAAUAUUACGGAGA | -2.64 ± 0.4 | -1.53 ± 0.43 |
| CGUUAGCAAUAUUACGGAGC | -3.81 ± 0.47 | -1.35 ± 0.47 |
| CGUUAGCAAUAUUACGGCCG | -1.84 ± 0.41 | -0.176 ± 0.35 |
| CGUUAGCAAUAUUACGGGCG | -3.04 ± 0.24 | -2.38 ± 0.3 |
| CGUUAGCAAUAUUACGGUAA | -1.58 ± 0.26 | -0.129 ± 0.28 |
| CGUUAGCAAUAUUACGGUUG | -0.758 ± 0.11 | 0.388 ± 0.13 |
| CGUUAGCAAUAUUACGUACC | -1.39 ± 0.15 | -1.09 ± 0.18 |
| CGUUAGCAAUAUUACGUAGG | -0.104 ± 0.093 | -0.845 ± 0.14 |
| CGUUAGCAAUAUUACGUGUA | -3.37 ± 0.25 | -3.03 ± 0.34 |
| CUAAAGCAAUAUUACGACCA | -2.78 ± 0.23 | 0.487 ± 0.23 |
| CUAAAGCAAUAUUACGAGCC | -1.33 ± 0.18 | -0.475 ± 0.44 |
| CUAAAGCAAUAUUACGAGUG | 0.178 ± 0.047 | 0.456 ± 0.077 |
| CUAAAGCAAUAUUACGAUAA | -2.17 ± 0.14 | -0.422 ± 0.12 |
| CUAAAGCAAUAUUACGAUGU | -3.84 ± 0.18 | -2.58 ± 0.2 |
| CUAAAGCAAUAUUACGCAAC | -3.32 ± 0.29 | -3.03 ± 0.38 |
| CUAAAGCAAUAUUACGCAUA | -3.66 ± 0.23 | -2.65 ± 0.24 |
| CUAAAGCAAUAUUACGCAUG | -0.592 ± 0.071 | -0.193 ± 0.089 |
| CUAAAGCAAUAUUACGCUAC | -3.59 ± 0.37 | -2.59 ± 0.26 |
| CUAAAGCAAUAUUACGCUAG | -3.41 ± 0.24 | -1.84 ± 0.13 |
| CUAAAGCAAUAUUACGGAGU | -4.03 ± 0.15 | -3.19 ± 0.23 |
| CUAAAGCAAUAUUACGGGCC | -2.8 ± 0.23 | -1.28 ± 0.2 |
| CUAAAGCAAUAUUACGGGUG | 0.107 ± 0.039 | 0.493 ± 0.064 |
| CUAAAGCAAUAUUACGGUGC | -3.22 ± 0.16 | -3.15 ± 0.25 |
| CUAAAGCAAUAUUACGGUUA | -3.78 ± 0.33 | -2.72 ± 0.25 |
| CUAAAGCAAUAUUACGUAAA | -2.81 ± 0.14 | -3.36 ± 0.26 |

| Sequence | self-splicing fitness (ln) (30 °C) | self-splicing fitness (ln) (37 °C) |
| --- | --- | --- |
| CUAAAGCAAUAUUACGUAUC | -3.77 ± 0.18 | -2.22 ± 0.22 |
| CUAAAGCAAUAUUACGUCUG | 0.155 ± 0.049 | 0.458 ± 0.071 |
| CUAAAGCAAUAUUACGUGAC | -1.12 ± 0.051 | -0.411 ± 0.078 |
| CUAAAGCAAUAUUACGUUAA | -3.6 ± 0.11 | -2.53 ± 0.15 |
| CUACAGCAAUAUUACGAAAG | -1.42 ± 0.078 | -0.755 ± 0.094 |
| CUACAGCAAUAUUACGAAUA | -3.07 ± 0.41 | -2.21 ± 0.27 |
| CUACAGCAAUAUUACGAGCA | -2.77 ± 0.16 | -2.56 ± 0.23 |
| CUACAGCAAUAUUACGAGGU | -2.63 ± 0.13 | -3.03 ± 0.27 |
| CUACAGCAAUAUUACGAUAU | -3.89 ± 0.22 | -1.4 ± 0.22 |
| CUACAGCAAUAUUACGAUUG | -0.678 ± 0.055 | -0.0365 ± 0.078 |
| CUACAGCAAUAUUACGCCAU | -3.16 ± 0.12 | -2.45 ± 0.14 |
| CUACAGCAAUAUUACGCGAA | -2.83 ± 0.18 | -3.89 ± 0.31 |
| CUACAGCAAUAUUACGGAAU | -4.13 ± 0.32 | -3.3 ± 0.26 |
| CUACAGCAAUAUUACGGCGU | -3.49 ± 0.13 | -2.94 ± 0.19 |
| CUACAGCAAUAUUACGGCUA | -3.25 ± 0.25 | -3.02 ± 0.22 |
| CUACAGCAAUAUUACGGGCU | -4.53 ± 0.29 | -2.97 ± 0.29 |
| CUACAGCAAUAUUACGGGUA | -3.25 ± 0.19 | -2.05 ± 0.12 |
| CUACAGCAAUAUUACGGGUG | -0.249 ± 0.037 | -0.538 ± 0.053 |
| CUACAGCAAUAUUACGUAUA | -2.73 ± 0.2 | -1.13 ± 0.18 |
| CUACAGCAAUAUUACGUCAA | -3.91 ± 0.19 | -1.82 ± 0.14 |
| CUACAGCAAUAUUACGUCUU | -4.14 ± 0.24 | -3.48 ± 0.25 |
| CUACAGCAAUAUUACGUGAG | -0.958 ± 0.058 | -0.926 ± 0.086 |
| CUACAGCAAUAUUACGUGGG | -4.01 ± 0.2 | -2.61 ± 0.15 |
| CUACAGCAAUAUUACGUUCC | -2.48 ± 0.22 |  |
| CUAGAGCAAUAUUACGAAUU | -3.78 ± 0.28 | -1.95 ± 0.29 |
| CUAGAGCAAUAUUACGAGAC | -2.63 ± 0.29 | -0.86 ± 0.3 |

Reference: the supplement of paper PMC7877785
